{"source": "paper PMC3012076", "key": {"[1]": {"target": "Lig A9 (9th tandem Big repeat of LigA) (L. interrogans serovar Pomona)", "experiment": "SEC; Superose 12 10/300 GL, 25 mM HEPES pH 7.0, 50 mM KCl, with and without 3 mM CaCl2; column calibrated with molecular mass markers; self-association, monomer to dimer"}, "[2]": {"target": "LigBCen2 (L. interrogans serovar Pomona)", "experiment": "SEC; Superose 12 10/300 GL, 50 mM Tris pH 7.0, 50 mM KCl, with and without 3 mM CaCl2; column calibrated with molecular mass markers; self-association, monomer to dimer"}, "[3]": {"target": "Lig A10 (10th tandem Big repeat of LigA) (L. interrogans serovar Pomona)", "experiment": "SEC; Superose 12 10/300 GL, 25 mM HEPES pH 7.0, 50 mM KCl, with and without 3 mM CaCl2; column calibrated with molecular mass markers; self-association, monomer to dimer"}}, "data": [{"substance": "Lig A9 (9th tandem Big repeat of LigA) (domain or fragment)", "values": [{"measurement": "stoichiometry N", "setting": "[1]", "result": 2}]}, {"substance": "LigBCen2 (domain or fragment)", "values": [{"measurement": "stoichiometry N", "setting": "[2]", "result": 2}]}, {"substance": "Lig A10 (10th tandem Big repeat of LigA) (domain or fragment)", "values": [{"measurement": "stoichiometry N", "setting": "[3]", "result": 2}]}]}
